B1: Citrate synthase, mitochondrial, P00889 (parent)
chain: MALLTAAARLFGAKNASCLVLAARHASASSTNLKDILADLIPKEQARIKTFRQQHGNTVVGQITVDMMYGGMRGMKGLVYETSVLDPDEGIRFRGYSIPECQKMLPKAKGGEEPLPEGLFWLLVTGQIPTEEQVSWLSKEWAKRAALPSHVVTMLDNFPTNLHPMSQLSAAITALNSESNFARAYAEGIHRTKYWELIYEDCMDLIAKLPCVAAKIYRNLYREGSSIGAIDSKLDWSHNFTNMLGYTDAQFTELMRLYLTIHSDHEGGNVSAHTSHLVGSALSDPYLSFAAAMNGLAGPLHGLANQEVLVWLTQLQKEVGKDVSDEKLRDYIWNTLNSGRVVPGYGHAVLRKTDPRYTCQREFALKHLPHDPMFKLVAQLYKIVPNVLLEQGKAKNPWPNVDAHSGVLLQYYGMTEMNYYTVLFGVSRALGVLAQLIWSRALGFPLERPKSMSTDGLIKLVDSK
B2: Acylphosphatase-1, P41500 (parent)
chain: MSMAEGDTLISVDYEIFGKVQGVFFRKYTQAEGKKLGLVGWVQNTDQGTVQGQLQGPASKVRHMQEWLETKGSPKSHIDRASFHNEKVIVKLDYTDFQIVK
B3: Cocaine esterase, Q9L9D7 (parent)
chain: MVDGNYSVASNVMVPMRDGVRLAVDLYRPDADGPVPVLLVRNPYDKFDVFAWSTQSTNWLEFVRDGYAVVIQDTRGLFASEGEFVPHVDDEADAEDTLSWILEQAWCDGNVGMFGVSYLGVTQWQAAVSGVGGLKAIAPSMASADLYRAPWYGPGGALSVEALLGWSALIGTGLITSRSDARPEDAADFVQLAAILNDVAGAASVTPLAEQPLLGRLIPWVIDQVVDHPDNDESWQSISLFERLGGLATPALITAGWYDGFVGESLRTFVAVKDNADARLVVGPWSHSNLTGRNADRKFGIAATYPIQEATTMHKAFFDRHLRGETDALAGVPKVRLFVMGIDEWRDETDWPLPDTAYTPFYLGGSGAANTSTGGGTLSTSISGTESADTYLYDPADPVPSLGGTLLFHNGDNGPADQRPIHDRDDVLCYSTEVLTDPVEVTGTVSARLFVSSSAVDTDFTAKLVDVFPDGRAIALCDGIVRMRYRETLVNPTLIEAGEIYEVAIDMLATSNVFLPGHRIMVQVSSSNFPKYDRNSNTGGVIAREQLEEMCTAVNRIHRGPEHPSHIVLPIIKR
B4: Chaperone Ric-8A, Q5E9J8 (parent)
chain: MEPRAVADALETGEEDVVMEALRAYNRENSQSFTFDDAQQEDRKRLAKLLVSVLEQGLPPSRRVIWLQSIRILSRDRSCLDSFTSRRSLQALACYAGISASQGSVPEPLNMDVVLESLKCLCNLVLSSPVAQALAAEAGLVVRLAERVGLCRQSSFPHDVQFFDLRLLFLLTALRTDVRQQLFQELQGVRLLTRALELTLGMTEGERHPELLPPQETERAMEILKVLFNITFDSIKREVDEEDAALYRHLGTLLRHCVMLAAAGDRTEELHGHAVNLLGNLPVKCLDVLLTLEPHEGSLEFLGVNMDVIRVLLSFMEKRLHQTHRLKESVAPVLSVLTECARMHRPARKFLKAQVLPPLRDVRTRPEVGELLRNKLVRLMTHLDTDVKRVAAEFLFVLCSESVPRFIKYTGYGNAAGLLAARGLMAGGRPEGQYSEDEDTDTDEYKEAKASINPVTGRVEEKPPNPMEGMTEEQKEHEAMKLVNMFDKLSRHRVIQPMGMSPRGQLTSLQDAMCETMEGQLSSDPDSDPD
B5: Azurin, P00282 (parent)
chain: MLRKLAAVSLLSLLSAPLLAAECSVDIQGNDQMQFNTNAITVDKSCKQFTVNLSHPGNLPKNVMGHNWVLSTAADMQGVVTDGMASGLDKDYLKPDDSRVIAHTKLIGSGEKDSVTFDVSKLKEGEQYMFFCTFPGHSALMKGTLTLK
B6: E81Q, P95467 (parent)
chain: MKKALIASTALLLTAGVAAADVKISGYGRTGVIYYENDSDVNESRVQSRLRMNIDASSSTDSGVDFGARFRLQWDQGEEGEAQTNAGKLWVSAQGFTVEVGNVDTAFASNGLIYETGLGSYDRSVGFSAVTGAFFAYDSNGYGIDEVDRVGIRALYTLGDLTLQASYVDPDQSGTVIGVEEEFGFSVDYTWNERLELSAAAAFNGAGIDGNDIYFLGARYAVMDNARIGLNFVDAGDEEDGYDGKTIALYGDYTLADGRTNLEAYIANNDRDSNETDNAFGIGVNYDLGGARLGASLQRDYAENVTADFGVRFEF

Variants of: B1
Conditions: Sus scrofa; pH 7.5; Thermal; CD; Tris-HCl 5.0 mM; reversible: yes; structure 1CTS; whole UniProt chain shown

Variant	Tm	change of melting temperature, mutant - wild type (higher = more stable)
D402Q	69 °C	11.1 °C

Variants of: B2
Conditions: Bos taurus; pH 5.5; 25 °C; Thermal; CD; sodium acetate 5 mM; reversible: Yes; structure 2ACY; whole UniProt chain shown

Variant	ddG of mutation (higher = less stable)
K27E E66K N85K Q98K	-1.67 kcal/mol

Same assay, conditions: Bos taurus; pH 5.5; Thermal; CD; sodium acetate 5 mM; reversible: Yes; structure 2ACY; whole UniProt chain shown

Variant	change of melting temperature, mutant - wild type (higher = more stable)
K27E E66K N85K Q98K	5.4 °C

Same assay, conditions: Bos taurus; pH 7; 25 °C; Thermal; DSC; sodium phosphate 50 mM; reversible: Yes; structure 2ACY; whole UniProt chain shown

Variant	ddG of mutation (higher = less stable)
K27E E66K N85K Q98K	-1.67 kcal/mol

Same assay, conditions: Bos taurus; pH 7; Thermal; DSC; sodium phosphate 50 mM; reversible: Yes; structure 2ACY; whole UniProt chain shown

Variant	change of melting temperature, mutant - wild type (higher = more stable)
K27E E66K N85K Q98K	5.4 °C

Variants of: B3
Conditions: Rhodococcus sp. (strain MB1 Bresler); pH 8; Thermal; Fluorescence; Tris 50 mM; structure 1JU3; whole UniProt chain shown

Variant	Tm	change of melting temperature, mutant - wild type (higher = more stable)
T172R G173Q	41.2 °C	6.41 °C
L169K	41.1 °C	6.3 °C
G173Q	37.7 °C	2.97 °C

Variants of: B4
Conditions: Bos taurus; pH 7.5; Thermal; DSF; Tris-HCl; KCl; structure 6N85; whole UniProt chain shown

Variant	Tm	change of melting temperature, mutant - wild type (higher = more stable)
F169R	45.6 °C	-1.2 °C
R75M	45.9 °C	-0.9 °C
A173W	45.6 °C	-1.2 °C
N123E	46.7 °C	-0.1 °C

Variants of: B5
Conditions: Pseudomonas aeruginosa (strain ATCC 15692 / DSM 22644 / CIP 104116 / JCM 14847 / LMG 12228 / 1C / PRS 101 / PAO1); pH 7.5; 40 °C; GdnHCl; Fluorescence; Tris Cl 2 mM; reversible: Yes; structure 5AZU; whole UniProt chain shown

Variant	ddG of mutation (higher = less stable)	unfolding free energy
F130S	6.4 kcal/mol	2.2 kcal/mol
I27S	6.4 kcal/mol	2.2 kcal/mol

Same assay, conditions: Pseudomonas aeruginosa (strain ATCC 15692 / DSM 22644 / CIP 104116 / JCM 14847 / LMG 12228 / 1C / PRS 101 / PAO1); pH 7; 20 °C; GdnHCl; CD; phosphate 5 mM; reversible: yes; structure 5AZU; whole UniProt chain shown

Variant	denaturant m value	denaturant midpoint (higher = more stable)	unfolding free energy
H66G	3.94 kcal/mol/M	1.1 M	4.35 kcal/mol

Variants of: B6
Conditions: Paracoccus denitrificans; pH 8; Thermal; Absorbance; Tris-HCl 50 mM; NaCl 100 mM; reversible: no; whole UniProt chain shown

Variant	Tm	change of melting temperature, mutant - wild type (higher = more stable)
E81Q	84.2 °C	-2 °C
E81Q D148N	82.3 °C	-3.9 °C

— FireProtDB
